Residue numbers refer to the chain shown, from its start.
T1: recombinant mouse mesothelin extracellular domain (mMSLN-ECD) (mouse, UniProt Q61468 298-600, limits assumed)
T1 construct: extracellular domain; also called mouse MSLN; mouse MSLN-ECD
T1 sequence (looked up): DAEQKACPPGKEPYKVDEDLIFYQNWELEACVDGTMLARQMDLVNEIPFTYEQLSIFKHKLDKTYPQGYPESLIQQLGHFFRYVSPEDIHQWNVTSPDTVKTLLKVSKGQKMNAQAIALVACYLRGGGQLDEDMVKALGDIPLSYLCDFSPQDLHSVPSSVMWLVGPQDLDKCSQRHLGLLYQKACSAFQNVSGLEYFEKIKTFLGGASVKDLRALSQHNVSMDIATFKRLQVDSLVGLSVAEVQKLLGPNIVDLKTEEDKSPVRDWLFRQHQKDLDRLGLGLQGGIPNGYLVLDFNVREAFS

B1: hMSLN-TP7-5 (VHH)
VHH: QVKLEESGGGLVQAGGSLRISCAASGRSISDYFMGWFRQTPGKEREFVAAISWSGGTAYYADSVKGRFTISRDNAKNTGYLQMNSLKPEDTAVYFCAARLSYDSRTSLQNSYDYNYWGQGTQVTVSS
notes: Llama VHH expressed in E. coli; biotinylated form used in the Mirrorball assay; also called VHH # 2
B2: hMSLN-mTP7-82 (VHH)
VHH: QVQLVESGGGLVQAGGSLRLSCAASGSIRSASGMHWYRQAPGKERELVASITTSGETTWYRDSVKGRFTISINNAKMMLYLQMNSLKFEDTAVYYCNLRSYWGQGTQVTVSS
notes: Llama VHH expressed in E. coli
B3: hMSLN-TP7-4 (VHH)
VHH: QVQLVGSGGGLVRAGGSLRLSCAGSGLTFGSYAMAWYRQAPGKQRELVASISSRGVTNYADSVEGRFTISRDNAKSTVYLQMNDLKPEDAAVYYCNAKGPFMLREYDYWGQGTQVTVSS
notes: Llama VHH expressed in E. coli BL21(DE3), IMAC purified, monomeric SEC fraction used for SPR; biotinylated form used in the Mirrorball assay; also called VHH # 1
B4: hMSLN-bioTP7-53 (VHH)
VHH: QVQLVESGGGLVQPGGSLRLACAASGGIGSLSNVRWYRQGPGKEREYVAGITGQSTTYYADSVKGRFTISRDNVKNTVDLQMNSLKPEDTAVYICNVATLRNEYWGQGTQVTVSS
notes: Llama VHH expressed in E. coli; also called VHH # 11
B5: hMSLN-TP7-18 (VHH)
VHH: EVQLVESGGRLVQAGGSLRLSCVASGRAFKWWTMGWFRQAPGKEREFVASISWSDGSTTYGDSVKGRFAISRDNNKNTVYLQMNSLTPEDTAVYYCARYGKDLSGRHSKNVQDYDYWGQGTQVTVSS
notes: Llama VHH expressed in E. coli; also called VHH # 4
B6: hMSLN-bioTP7-7 (VHH)
VHH: QVQLVESGGGLVQAGGSLRLSCAASGRTVSTYNMAWFRQAPGKEREIVAVINWTGGSTYYAESVKGRFTISRDNPKNTVYLQMNSLKPEDTAVYYCAATRTSWTENTYWGQGTQVTVSS
modifications: C-terminal His tag and AviTag from vector pMRO; letters not given, left off
notes: as for B2
B7: hMSLN-TP7-9 (VHH)
VHH: B6 VHH with Q1D, E6D, R72G, T101A
notes: Llama VHH expressed in E. coli; biotinylated form used in the Mirrorball assay; also called VHH # 3
B8: hMSLN-TP7-56 (VHH)
VHH: QVQLVESGGGLVQAGGSLRISCVASGRDFSSHFMGWSRQAPGKEREFVAAISWSGGTTYYADSVKGRFAISRDNDKTTVYLQMNSLKPEDSAVYYCAARRTYDSRTSLRNSYDYPYWGQGTQVTVSS
modifications: C-terminal His tag and AviTag (biotinylated in the Mirrorball assay) from vector pMRO; letters not given, left off
notes: Llama VHH expressed in E. coli; biotinylated form used in the Mirrorball assay; also called VHH # 7
B9: hMSLN-TP7-75A (VHH)
VHH: QVQLVESGGGLVQAGGSLSLSCAASGRTFSASAMAWFRQAPGTDREFVAAVAWGGRDTHYADSVKGRFTISMNNAKNTVVLQMNSLKPEDTAVYYCAAGQRGWSHSTSRDYDYWGQGTQVTVSS
notes: Llama VHH expressed in E. coli; also called VHH # 12
B10: hMSLN-bioTP7-48 (VHH)
VHH: QVKLEESGGGLVQPGGSLRLSCTASGSIWSASGLTWYRQRPGNERELVASITTGGETTWYADSVKGRFTISISRDNGKMITYLQMNSLKPEDTAVYLCNSRSYWGQGTQVTVSS
notes: Llama VHH expressed in E. coli; also called VHH # 10
B11: hMSLN-TP7-38A (VHH)
VHH: B6 VHH with Q3K, V5E, A14P, T31A, S57G
notes: Llama VHH expressed in E. coli; also called VHH # 6
B12: hMSLN-biomTP7-41 (VHH)
VHH: QVQLVESGGGLVQPGGSLRLSCTASGIVRASGMAWYRQAPGKQRELVASITTGGETTWYADSVKGRFTISIDNAKMMLYLQMNALKPEDTAVYLCNQRSYWGQGTQVTVSS
modifications: C-terminal His tag and AviTag from vector pMRO; letters not given, left off
notes: Llama VHH expressed in E. coli; also called VHH # 9
B13: hMSLN-TP7-35 (VHH)
VHH: QVQLVDSGGGLVQPGGSLRLSCTTSASTFRFFAMHWYRQAPGKERELVAVISRDGDAEYVDSVKGRFTISRDNAKNAVYLQMNSLKPEDTAVYYCHTRILSDHYWGQGTQVTVSS
modifications: C-terminal His tag and AviTag from vector pMRO; letters not given, left off
notes: Llama VHH expressed in E. coli; also called VHH # 5

Molecular target: recombinant human mesothelin extracellular domain, isoform 1 (hMSLN-ECD, 10xHis) (human) (UniProt Q13421)
Assay: SPR (Biacore T200), VHH over immobilized hMSLN-ECD, 1:1 model

In order of falling Kd:
1. B1  57.2 nM
2. B9  52 nM
3. B8  26.5 nM
4. B7  1.34 nM
5. B4  0.571 nM
6. B3  0.225 nM
7. B6  0.0924 nM
8. B2  0.0579 nM

In order of falling koff:
1. B9  0.0305 s⁻¹
2. B8  0.0201 s⁻¹
3. B5  0.0138 s⁻¹
4. B7  0.00238 s⁻¹
5. B4  0.000433 s⁻¹
6. B3  0.000388 s⁻¹
7. B6  0.000351 s⁻¹
8. B2  0.000176 s⁻¹

In order of falling kon:
1. B6  3.8e+06 M⁻¹ s⁻¹
2. B2  3.04e+06 M⁻¹ s⁻¹
3. B7  1.78e+06 M⁻¹ s⁻¹
4. B3  1.72e+06 M⁻¹ s⁻¹
5. B4  758000 M⁻¹ s⁻¹
6. B8  757000 M⁻¹ s⁻¹
7. B9  587000 M⁻¹ s⁻¹

Molecular target: human mesothelin on MSLN-positive cells (NCI-H292, SKOV3) (human) (UniProt Q13421)
Sequence (Q13421 other isoform, or with tags, fused parts or gaps limits assumed): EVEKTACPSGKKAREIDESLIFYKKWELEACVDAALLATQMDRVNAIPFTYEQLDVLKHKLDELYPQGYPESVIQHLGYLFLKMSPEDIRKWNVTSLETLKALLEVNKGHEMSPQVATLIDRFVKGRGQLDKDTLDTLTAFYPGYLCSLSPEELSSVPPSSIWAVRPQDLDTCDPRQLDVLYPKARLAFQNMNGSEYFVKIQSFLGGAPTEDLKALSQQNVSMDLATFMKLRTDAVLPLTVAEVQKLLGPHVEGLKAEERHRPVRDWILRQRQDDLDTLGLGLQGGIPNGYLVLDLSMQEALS
Assay: cell-based or functional assay

For B1, the EC50 of CD69 staining of Jurkat cells in co-culture with MSLN+ H292 cells was 1 nM.

Molecular target: T2, human mesothelin on MSLN-positive cells (NCI-H292, SKOV3) (human, UniProt Q13421 296-598)
T2 construct: whole, on cells; Endogenous expression on tumour cell lines; H1581 and Raji cells served as MSLN-negative controls; also called cell surface MSLN
T2 sequence (Q13421 other isoform, or with tags, fused parts or gaps limits assumed): as above
Assay: Mirrorball microplate cytometry on adherent NCI-H292 (MSLN-positive) cells, 2 h; biotinylated VHH detected with streptavidin-PE; MMFI
Description: Cells (5000 cells well-1) were seeded in Nunc® MicroWell 96-well optical bottom plates (Sigma-Aldrich) and incubated at 37° C. in a humidified atmosphere containing 5% CO₂ for 24-48 h. Each anti-MSLN biotinylated VHH was serially diluted in Live Cell Imaging Solution (LCIS; Thermo Fisher) and 50 μL of each Ab variant was added to the assay plate and incubated at 4° C. for 2 h. As positive control, anti-MF-T (human IgG1) monoclonal antibody (NRC-HHT-Montreal) was used. The wells were washed with LCIS, then Biotin-Streptavidin, R-Phycoerythrin Conjugate (SAPE) or donkey anti-Human Alexa Fluor (AF488) (at 3 ug/ml final concentration) was added to the wells and incubated at 4° C. for 1 h. The secondary Ab was removed, the cells were washed with LCIS then 50 μL of DRAQ5 nuclear stain (1 μM prepared in LCIS; Cell Signaling, Danvers, MA, USA) was added to wells and incubated for 10 min at 4° C. […] Data were analyzed using Cellista software (TTP Labtech) and GraphPad Prism 6 software. […]
Cell binding activities of the selected VHHs were examined by Mirrorball where negative-(NCI-H1581) and positive (NCI-H292)-MSLN cells were cultured in 96 well plate and binding of the biotinylated VHHs was detected by Streptaviding-PE conjugate. As positive control, a human IgG1 mAb MF-T was used which was detected by donkey anti-human […].

In order of rising “EC50 (read off the curve)” value:
1. B3  ~1 nM
2. B7  ~3 nM

Molecular target: T1, recombinant mouse mesothelin …
Assay: SPR, VHH over immobilized mouse MSLN-ECD
Description: For surface Plasmon resonance, as mentioned above selected VHHs were passed though size exclusion columns, Superdex 75 (GE Healthcare), respectively, in 10 mM HEPES, pH 7.4, containing 150 mM NaCl, 3 mM EDTA, and monomeric sdAb fractions were collected and protein concentrations were determined by measuring absorbance at 280 nm (A280). SPR analysis were performed with Biacore T200 instrument (GE Healthcare). All measurements were carried out at 25° C. in 10 mM HEPES, pH 7.4, containing 150 mM NaCl, 3 mM EDTA and 0.005% surfactant P20 (GE Healthcare). Approximately 500 RUs of the recombinant monomeric human and mouse MSLN-ECD (obtained after SEC purification of the MSLN-ECD) were captured on SA sensor chip (GE Healthcare) at a flow rate of 5 uL/min. Various concentration of the monomeric VHHs (20-500 nM) were injected over MSLN-ECD surface, respectively using an SA surface as a reference at a flow rate of 40 μL/min. Surfaces were generated by washing with running buffer. Data were analysed with BIAevaluation 4.1 software.
The monomeric fraction of VHHs obtained by SEC purification were used for SPR experiment where the human or mouse MSLN-ECD was immobilized onto the […] and various VHH concentration (20-500 nM) were passed over the sensor chip. […] All of the data collected fit a 1:1 binding model (Table 3A).

B1: no binding (tested: 20-500 nM).
B10: no binding (tested: 20-500 nM).
B4: no binding (tested: 20-500 nM).
B5: no binding (tested: 20-500 nM).
B7: no binding (tested: 20-500 nM).
B11: no binding (tested: 20-500 nM).
B8: no binding (tested: 20-500 nM).
B9: no binding (tested: 20-500 nM).
B12: no binding (tested: 20-500 nM).
B13: no binding (tested: 20-500 nM).

In order of falling Kd:
1. B3  300 nM
2. B6  218 nM
3. B2  145 nM

Molecular target: recombinant human mesothelin extracellular domain, isoform 1 (hMSLN-ECD, 10xHis) (human) (UniProt Q13421)
Assay: SPR (Biacore T200), VHH over immobilized hMSLN-ECD; no rate constants printed

In order of falling Kd:
1. B10  276 nM
2. B12  214 nM
